Columns and labels:
[1] = target: T1, thymidylate synthase (TS) (zebrafish, UniProt A0ACM8Q3Q5 1-318); assay: competition EMSA; vs 32P full-length TS mRNA; 37 C, 10 min; 100 ng TS (200 ng in Fig. 5B legend), 1 ng 32P TS mRNA; non-denaturing 5% acrylamide gel (60:1); binding buffer, salt and pH not given (cited ref. 16); settings: protein: recombinant; tags: His-tag removed by thrombin; chain copies: 2; hairpin (MFold), 6 nt loop
[2] = target: T1, thymidylate synthase (TS); assay: EMSA; 100 ng TS; 37 C, 10 min; 100 ng TS (200 ng in Fig. 5B legend), 1 ng 32P TS mRNA; non-denaturing 5% acrylamide gel (60:1); binding buffer, salt and pH not given (cited ref. 16); settings: protein: recombinant, tags: His-tag removed by thrombin, chain copies: 2, hairpin (MFold)

T1 sequence (A0ACM8Q3Q5 entry or part of it): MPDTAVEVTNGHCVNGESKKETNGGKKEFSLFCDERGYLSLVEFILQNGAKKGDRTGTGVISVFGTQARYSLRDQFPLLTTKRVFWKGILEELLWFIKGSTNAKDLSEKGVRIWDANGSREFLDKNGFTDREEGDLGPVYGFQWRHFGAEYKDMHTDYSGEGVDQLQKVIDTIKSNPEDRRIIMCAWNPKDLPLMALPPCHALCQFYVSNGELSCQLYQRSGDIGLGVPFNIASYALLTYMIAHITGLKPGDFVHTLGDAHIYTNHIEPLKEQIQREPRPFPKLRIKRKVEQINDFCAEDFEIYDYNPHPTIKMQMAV

Binder: CUCUUGUUGUGCUGCAGGAU (structured_RNA) [TS:N20 (TS13-32)]
- IC50 [1]: 0.62 ± 0.2 nM

Binder: CUCUUGUUGUGCAGGAU (structured_RNA) [Δ20-TS RNA]
- binding result [2]: no binding

Binder: CUCUUCAUGUGCUGCAGGAU (structured_RNA) [Δ20-18-TS RNA]
- binding result ([2]; 5 nt loop): no binding

Binder: CUCUUGUUGUAAAGCAGGAU (structured_RNA) [Δ20-23-TS RNA (Δ20-22 in Table 1)]
- binding result ([2]; 4 nt loop): no binding

Reference: article PMC2868900, “Interaction between Thymidylate Synthase and Its Cognate mRNA in Zebrafish Embryos”
